The record followed here is the supplement of paper PMC10567573.

The nature of this data set: protein stability index of a GFP-peptide fusion (GPS, HEK-293T) (PSI 1-6); higher = more stable.
Setting [1] is: treatment: DMSO, c terminus: a fixed tail appended.
Where [2] appears, read: treatment: MLN4924 1 uM, 8 h, c terminus: a fixed tail appended.

± gives the standard deviation.
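Also: 24-mer peptide tiles fused after GFP, lentivirally expressed, FACS-sorted into six equal bins by GFP/DsRed ratio, decoded by Illumina sequencing, PSI is the read-weighted mean bin number.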

EPLVLYNQNLSNRPSFNRTPIPWL [MYOZ1]: the protein stability index stood at 2.39 ± 0.4 under setting [1] and 2.44 ± 0.17 under setting [2].

Regarding LTEQQEQLRGQLQDLDSRLRAGSS [RASAL3], the protein stability index worked out at 5.08 ± 0.18 under setting [1] and 5.19 ± 0.23 under setting [2].

With DFPAHRIVLAACSDYFCAMFTSEL [KLHL12], the protein stability index was found to be 3.08 ± 0.41 under setting [1] and 3.27 ± 0.51 under setting [2].

RIQIWFQNRRAKLKRSHRESQFLM [HESX1] registered a protein stability index under setting [1] of 2.43 ± 0.76 and a protein stability index under setting [2] of 2.15 ± 0.67.

With WEHSAPQRLPRSAPPGSLVTKVTA [PCDHGC5], the protein stability index is, setting by setting: under setting [1], 3.84 ± 0.092; under setting [2], 4.02 ± 0.18.

Take AAETRGAVEGAARTTPSRREITGV [PALM]: the protein stability index by setting is: under setting [1], 4.86 ± 0.36; under setting [2], 5.07 ± 0.18.

On to APMDAPRYQHGIAVIGNFLYVVGG [KLHL13], for which the protein stability index reads like this: under setting [1], 2.18 ± 0.36; under setting [2], 2.25 ± 0.25.

Take DEDAGLPRPVQLDETHPYTVTSVS [NEK8]: the protein stability index amounted to 5.12 ± 0.19 under setting [1] and 5.23 ± 0.18 under setting [2].

Turning to LSRLSVNSVTAGDYSRPLHISTFI [TSN], the protein stability index runs as follows: under setting [1], 2.42 ± 0.61; under setting [2], 2.31 ± 0.24.

In turn, QFRVIGPRHPIRALVGDEVELPCR [MOG] displayed a protein stability index under setting [1] of 3.63 ± 0.31 and a protein stability index under setting [2] of 3.64 ± 0.45.

Consider MSKQRERQLRRRALHPERAMDNHS [RETREG3], for which the protein stability index is 4.31 ± 0.17 under setting [1] and 4.44 ± 0.088 under setting [2].

Take VERPHSGLPGKVFACLSVLFVTVT [KCNG1]: the protein stability index was determined as 3.03 ± 0.73 under setting [1] and 2.52 ± 0.38 under setting [2].

On to PGFLSTAEEETLSRELEPELRRRR [ALKBH7], for which the protein stability index reads like this: under setting [1], 5.12 ± 0.23; under setting [2], 5.28 ± 0.3.

In the case of LKNPFFRYTGTTPSPPPGSHYTSP [CARM1], the protein stability index is, setting by setting: under setting [1], 2.9 ± 0.16; under setting [2], 3.16 ± 0.25.

On to EKIDKLEQDMERRKADFKAGKALV [ZC3H15], for which the protein stability index under setting [1] stood at 4.74 ± 0.3 and the protein stability index under setting [2] amounted to 4.67 ± 0.23.

On to KLGLGIDEDEVAAEEPNAAVPDEI [HSP90AB1], for which the protein stability index was 5.8 ± 0.18 under setting [1] and 5.48 ± 0.24 under setting [2].

Turning to SHTLEERVVHWYFKLLDKNSSGDI [SMOC2], the protein stability index is 2.44 ± 0.36 under setting [1] and 2.03 ± 0.21 under setting [2].

In the case of IDPLLYMTEWFMCAFSRTLPWSSV [TBC1D10A], the protein stability index runs as follows: under setting [1], 3.43 ± 0.23; under setting [2], 3.16 ± 0.27.

In the case of AAALKCQLCEKAPKEATVMCEQCD [TRIM9], the protein stability index reads like this: under setting [1], 5.33 ± 0.22; under setting [2], 5.4 ± 0.15.

AVVALTQDQPSEAATGGATLAQTI [HDAC6]: the protein stability index by setting is: under setting [1], 4.27 ± 0.33; under setting [2], 4.38 ± 0.24.

ATITSRGSSLSGSLCSLLESQSTS [LURAP1L]: the protein stability index reads like this: under setting [1], 3.49 ± 0.28; under setting [2], 3.6 ± 0.32.

Turning to KVVLIGDSGVGKSNLLSRFTRNEF [RAB11A], the protein stability index under setting [1] stood at 2.33 ± 0.19 and the protein stability index under setting [2] amounted to 2.28 ± 0.39.

As to KEQAIWKHPQPAPAVTPDPWGVQG [PKD2L1], the protein stability index is, setting by setting: under setting [1], 3.75 ± 0.22; under setting [2], 4.07 ± 0.31.

For VKEPCSLPMLSVDMENKENGSVGV [SAMD13], the protein stability index turned out to be 5 ± 0.19 under setting [1] and 5.11 ± 0.21 under setting [2].

Consider LDPQPITDEEEGLIWVVGPVLAVV [PTPRD], for which the protein stability index is, setting by setting: under setting [1], 2.02 ± 0.41; under setting [2], 2.42 ± 0.27.

As to LCKVLGVLFSVAGGLFVGKEGPMI [CLCN6], the protein stability index is, setting by setting: under setting [1], 2.73 ± 0.25; under setting [2], 2.89 ± 0.5.

As for GEARFLPKDLDPSLCTHLIYAFAG [CHIT1], the protein stability index is, setting by setting: under setting [1], 2.36 ± 0.27; under setting [2], 2.44 ± 0.49.

As to QVLNETRNQYEALVETNRREVEQW [KRT33B], the protein stability index is, setting by setting: under setting [1], 4.24 ± 0.43; under setting [2], 4.5 ± 0.17.

As to NKQTLSSGEKYDPDANTWTALPPM [GAN], the protein stability index by setting is: under setting [1], 4.07 ± 0.39; under setting [2], 4.03 ± 0.1.

Consider VYYIFERLCAPLFRNIKQEPFSAR [SOAT1], for which the protein stability index amounted to 2.5 ± 0.71 under setting [1] and 2.61 ± 0.5 under setting [2].

On to GNISGEFWLGNEALHSLTQAGDYS [TNXB], for which the protein stability index runs as follows: under setting [1], 3.21 ± 0.091; under setting [2], 3.36 ± 0.34.

For the sequence AVKLYNSGDFRSSTEDMERALSEY [P3H4], the protein stability index by setting is: under setting [1], 4.57 ± 0.4; under setting [2], 4.14 ± 0.26.

Sequence ELPTRIHEEVYFEPSSSKDSDENS [MIA2] came in with a protein stability index under setting [1] of 5.34 ± 0.14 and a protein stability index under setting [2] of 4.79 ± 0.58.

TNALTHTVAMSTLNFCGPNVINHF [OR3A1]: the protein stability index stood at 2.41 ± 0.57 under setting [1] and 2.47 ± 0.27 under setting [2].

As to SWGWDLGRNRLYHDGKNQPSKTYP [SPSB1], the protein stability index is, setting by setting: under setting [1], 3.65 ± 0.094; under setting [2], 3.53 ± 0.34.

TILPQEIQSRVQELHPESGEEAVT [ZNF263]: the protein stability index is, setting by setting: under setting [1], 5.11 ± 0.25; under setting [2], 5.33 ± 0.28.

As to WDLNMENRPIETYQVHDYLRSKLC [PPP2R2B], the protein stability index was 2.65 ± 0.34 under setting [1] and 2.72 ± 0.29 under setting [2].

Turning to EELERRFEDEVKRLGWQQQAELQE [MTUS2], the protein stability index reads like this: under setting [1], 5.01 ± 0.51; under setting [2], 5.24 ± 0.35.

For SPTGLSPYLRFGCLSCRLFYFKLT [CRY1], the protein stability index reads like this: under setting [1], 1.84 ± 0.27; under setting [2], 2.14 ± 0.43.

Take PPLEDFEVLDGVEDAEGEEEEEEE [FKBP8]: the protein stability index turned out to be 5.69 ± 0.27 under setting [1] and 5.61 ± 0.34 under setting [2].

For the sequence GSTLGGSSYSSCYSFGSGGGYGSS [KRT17], the protein stability index runs as follows: under setting [1], 2.77 ± 0.23; under setting [2], 2.98 ± 0.6.

For the sequence ESSVPVTPSVPPPASQHSTPAGLP [FBF1], the protein stability index runs as follows: under setting [1], 5.04 ± 0.18; under setting [2], 5.19 ± 0.17.

Turning to AKHLIASMLSKNPEDRPSLDDIIR [PLK2], the protein stability index by setting is: under setting [1], 2.61 ± 0.38; under setting [2], 2.79 ± 0.24.

Consider LHSSILTCTLLLLYSLAPTMGAVV [MFSD9], for which the protein stability index worked out at 3.36 ± 0.4 under setting [1] and 2.94 ± 0.24 under setting [2].

For the sequence VFDNAIRAALISRRHLQFWKSHLK [RHOBTB1], the protein stability index runs as follows: under setting [1], 2.06 ± 0.63; under setting [2], 2.4 ± 0.29.

On to SDGGQKNKPREHIIDCGDIVWSLA [WSB1], for which the protein stability index by setting is: under setting [1], 3.07 ± 0.36; under setting [2], 3.23 ± 0.21.

Take NLPNLAAAYSSILSSLGENPQRQG [GCH1]: the protein stability index was 3.03 ± 0.2 under setting [1] and 3.2 ± 0.43 under setting [2].

Take GTADGADLRTVDPETQARLEALLE [ANKRD17]: the protein stability index turned out to be 4.42 ± 0.15 under setting [1] and 4.5 ± 0.21 under setting [2].

Regarding YEKFKLYLTIILILISFTCRFLLN [TMEM120A], the protein stability index is, setting by setting: under setting [1], 3.05 ± 0.21; under setting [2], 2.91 ± 0.39.

As for HTKELEDKVIELHKSHRGMTPAEA [EPB41L3], the protein stability index under setting [1] is 5.2 ± 0.24 and the protein stability index under setting [2] is 5.13 ± 0.16.

SEFHPHHCNLFVYSSSKGSLRLCD [PPP2R2C] returned a protein stability index under setting [1] of 2.23 ± 0.16 and a protein stability index under setting [2] of 2.27 ± 0.26.

Consider CRRCYDWIHRPGCRCKNSNTVYCK [SPRY1], for which the protein stability index is, setting by setting: under setting [1], 2.82 ± 0.089; under setting [2], 3.05 ± 0.13.

In turn, MRNLKASLENSLREVEARYALQME [KRT18] registered a protein stability index under setting [1] of 3.22 ± 0.12 and a protein stability index under setting [2] of 3.25 ± 0.38.

For EWNQKRARKAMRNGISPIIIDNTN [N4BP2L1], the protein stability index was 2.65 ± 0.16 under setting [1] and 3.02 ± 0.55 under setting [2].

Turning to AAETAAQGPTPRYFTWDEVAQRSG [FADS1], the protein stability index by setting is: under setting [1], 4.23 ± 0.23; under setting [2], 4.11 ± 0.27.

Consider MVFPAKRFCLVPSMEGVRWAFSCG [AASDHPPT], for which the protein stability index is, setting by setting: under setting [1], 2.74 ± 0.79; under setting [2], 2.77 ± 0.72.

In the case of PSDFFIGAVIEVFGHRFIILDTDE [EFHC1], the protein stability index reads like this: under setting [1], 2.32 ± 0.43; under setting [2], 2.31 ± 0.36.

For SSSNEHAAPAAKTRKQAAKKVAPL [ELOA2], the protein stability index is 4.85 ± 0.32 under setting [1] and 4.92 ± 0.26 under setting [2].

Turning to LKFDNSYSLWRSKSVYYRVYYTR [ACBD3], the protein stability index is, setting by setting: (treatment: DMSO, c terminus: native) 2.52 ± 0.6; (treatment: MLN4924 1 uM, 8 h, c terminus: native) 2.29 ± 0.71.

For VLQENYTHLPKADIFALALTVVCA [WEE1], the protein stability index is, setting by setting: under setting [1], 2.69 ± 0.85; under setting [2], 2.38 ± 0.27.

HVHDPHGQVIWGMSWAKLARQATN [FBXO39]: the protein stability index reads like this: under setting [1], 2.58 ± 0.32; under setting [2], 2.94 ± 0.21.

Take IYSLRNKEFKSALCKIVRRTISLL [OR10K2]: the protein stability index reads like this: under setting [1], 2.74 ± 1.2; under setting [2], 2.17 ± 0.49.

With PLRVDLILENTSKVPAPKDVLAHQ [NOP53], the protein stability index was determined as 3.28 ± 0.036 under setting [1] and 3.5 ± 0.29 under setting [2].

On to NLESKSTIGVEFATRSIQVDGKTI [RAB11A], for which the protein stability index reads like this: under setting [1], 4.33 ± 0.19; under setting [2], 4.27 ± 0.35.

In turn, LEKKNEALKERADSLAKEIQYLKD [ATF4] showed a protein stability index under setting [1] of 4.53 ± 0.24 and a protein stability index under setting [2] of 4.45 ± 0.056.

For the sequence KENQDIRLLQAQLQAQKEELQSLM [PBXIP1], the protein stability index under setting [1] stood at 4.05 ± 0.12 and the protein stability index under setting [2] came out at 4.14 ± 0.22.

TENRRLESKIREHLEKKGPQVRDW [KRT18]: the protein stability index was determined as 3.92 ± 0.16 under setting [1] and 3.95 ± 0.33 under setting [2].

The sequence LGQILVSVAGWSLFSLNVISLTCV [SLC19A2] returned a protein stability index under setting [1] of 3.3 ± 0.26 and a protein stability index under setting [2] of 3.21 ± 0.47.

GCGWRCPEHGDRVAELFCRRCRRC [TRIM14] displayed a protein stability index under setting [1] of 3.69 ± 0.27 and a protein stability index under setting [2] of 4.12 ± 0.18.

As for PLRAAHRRFNFDTDRPLLSTLEES [SMG5], the protein stability index reads like this: under setting [1], 3.94 ± 0.14; under setting [2], 3.94 ± 0.18.

NFLLFDMTTHPLTNNNIKQRLIKK [GOLPH3] showed a protein stability index under setting [1] of 2.62 ± 0.22 and a protein stability index under setting [2] of 2.81 ± 0.25.

For the sequence TLGEVPAAESPDPPQSPQGASSLP [MAGEA3], the protein stability index was found to be 5.5 ± 0.22 under setting [1] and 5.37 ± 0.1 under setting [2].
